The text below walks through data of patent US20090048168A1 (CASE WESTERN RESERVE UNIVERSITY, published 2009).

Assay [1] addresses YFP-IP3R type 1. In words: acceptor photobleaching FRET, fixed COS-7 cells expressing YFP-IP3R and CFP-Bcl-2.
Assay [2] has as its target Bcl-2 exogenously expressed in WEHI7.2 cells (UniProt P10415 1-239). In words: cell-based or functional assay.

Bcl-2 exogenously expressed in WEHI7.2 cells, sequence (P10415 whole entry): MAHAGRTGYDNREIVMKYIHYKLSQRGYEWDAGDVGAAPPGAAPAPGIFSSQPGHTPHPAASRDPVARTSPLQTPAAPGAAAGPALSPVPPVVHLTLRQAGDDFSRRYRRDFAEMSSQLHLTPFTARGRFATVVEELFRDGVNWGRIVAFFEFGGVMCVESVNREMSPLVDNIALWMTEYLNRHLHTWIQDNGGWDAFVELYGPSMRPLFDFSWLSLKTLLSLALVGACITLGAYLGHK

On to CFP-Bcl-2 (from UniProt P10415 1-239), for which the increase of CFP signal following YFP bleaching (FRET) in assay [1] came out at 28%.

B1: peptide 2, aa 1389-1408 of IP3R (peptide)
peptide: NVYTEIKCNSLLPLDDIVRV
Consider B1, for which the “anti-CD3-induced apoptosis in Bcl-2(+) WEHI7.2 cells, fold enhancement” value in assay [2] was determined as 2 fold.
